Data published in patent publication US20040147436A1.

What was measured:
[1] = tested on: T1, dBN(64-56) FVIII derivative
T1 sequence: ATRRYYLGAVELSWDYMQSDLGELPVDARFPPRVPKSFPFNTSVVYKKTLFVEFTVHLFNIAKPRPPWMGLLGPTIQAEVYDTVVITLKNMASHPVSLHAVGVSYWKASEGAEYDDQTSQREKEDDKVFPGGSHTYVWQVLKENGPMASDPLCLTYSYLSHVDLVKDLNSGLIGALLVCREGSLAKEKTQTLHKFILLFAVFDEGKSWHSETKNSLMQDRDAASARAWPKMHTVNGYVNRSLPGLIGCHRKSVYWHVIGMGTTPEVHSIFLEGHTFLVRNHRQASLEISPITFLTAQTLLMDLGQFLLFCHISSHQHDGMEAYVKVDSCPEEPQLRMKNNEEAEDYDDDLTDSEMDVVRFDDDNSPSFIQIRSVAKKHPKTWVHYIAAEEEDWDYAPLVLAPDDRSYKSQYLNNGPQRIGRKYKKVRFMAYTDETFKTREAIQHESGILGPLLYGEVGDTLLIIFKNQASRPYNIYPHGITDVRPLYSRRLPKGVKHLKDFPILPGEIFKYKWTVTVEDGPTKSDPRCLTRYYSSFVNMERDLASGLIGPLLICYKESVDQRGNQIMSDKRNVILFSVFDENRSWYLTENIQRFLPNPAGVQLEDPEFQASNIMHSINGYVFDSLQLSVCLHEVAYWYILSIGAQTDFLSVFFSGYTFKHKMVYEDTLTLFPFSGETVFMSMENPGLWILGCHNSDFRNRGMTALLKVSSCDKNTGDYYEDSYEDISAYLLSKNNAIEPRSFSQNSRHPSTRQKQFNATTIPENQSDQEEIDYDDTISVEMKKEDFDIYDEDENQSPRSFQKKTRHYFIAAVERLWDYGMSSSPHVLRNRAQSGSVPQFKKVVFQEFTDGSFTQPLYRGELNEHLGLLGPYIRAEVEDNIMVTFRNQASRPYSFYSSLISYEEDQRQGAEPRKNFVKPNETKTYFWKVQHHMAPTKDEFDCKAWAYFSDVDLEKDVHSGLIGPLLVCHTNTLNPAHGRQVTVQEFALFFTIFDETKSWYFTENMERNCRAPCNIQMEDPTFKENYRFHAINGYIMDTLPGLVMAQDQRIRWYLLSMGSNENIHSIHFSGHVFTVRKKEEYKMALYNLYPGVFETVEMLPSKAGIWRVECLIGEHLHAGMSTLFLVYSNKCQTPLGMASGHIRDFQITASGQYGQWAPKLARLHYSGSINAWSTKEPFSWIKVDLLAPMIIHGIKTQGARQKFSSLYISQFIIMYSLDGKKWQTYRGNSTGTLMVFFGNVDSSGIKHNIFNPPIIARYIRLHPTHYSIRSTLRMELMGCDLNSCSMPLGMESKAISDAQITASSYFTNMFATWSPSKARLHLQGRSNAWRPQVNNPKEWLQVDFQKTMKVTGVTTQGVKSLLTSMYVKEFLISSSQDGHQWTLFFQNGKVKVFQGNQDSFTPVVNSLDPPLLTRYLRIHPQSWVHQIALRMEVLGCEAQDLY

[2] = tested on: T2, dBN(64-53) FVIII derivative
T2 sequence: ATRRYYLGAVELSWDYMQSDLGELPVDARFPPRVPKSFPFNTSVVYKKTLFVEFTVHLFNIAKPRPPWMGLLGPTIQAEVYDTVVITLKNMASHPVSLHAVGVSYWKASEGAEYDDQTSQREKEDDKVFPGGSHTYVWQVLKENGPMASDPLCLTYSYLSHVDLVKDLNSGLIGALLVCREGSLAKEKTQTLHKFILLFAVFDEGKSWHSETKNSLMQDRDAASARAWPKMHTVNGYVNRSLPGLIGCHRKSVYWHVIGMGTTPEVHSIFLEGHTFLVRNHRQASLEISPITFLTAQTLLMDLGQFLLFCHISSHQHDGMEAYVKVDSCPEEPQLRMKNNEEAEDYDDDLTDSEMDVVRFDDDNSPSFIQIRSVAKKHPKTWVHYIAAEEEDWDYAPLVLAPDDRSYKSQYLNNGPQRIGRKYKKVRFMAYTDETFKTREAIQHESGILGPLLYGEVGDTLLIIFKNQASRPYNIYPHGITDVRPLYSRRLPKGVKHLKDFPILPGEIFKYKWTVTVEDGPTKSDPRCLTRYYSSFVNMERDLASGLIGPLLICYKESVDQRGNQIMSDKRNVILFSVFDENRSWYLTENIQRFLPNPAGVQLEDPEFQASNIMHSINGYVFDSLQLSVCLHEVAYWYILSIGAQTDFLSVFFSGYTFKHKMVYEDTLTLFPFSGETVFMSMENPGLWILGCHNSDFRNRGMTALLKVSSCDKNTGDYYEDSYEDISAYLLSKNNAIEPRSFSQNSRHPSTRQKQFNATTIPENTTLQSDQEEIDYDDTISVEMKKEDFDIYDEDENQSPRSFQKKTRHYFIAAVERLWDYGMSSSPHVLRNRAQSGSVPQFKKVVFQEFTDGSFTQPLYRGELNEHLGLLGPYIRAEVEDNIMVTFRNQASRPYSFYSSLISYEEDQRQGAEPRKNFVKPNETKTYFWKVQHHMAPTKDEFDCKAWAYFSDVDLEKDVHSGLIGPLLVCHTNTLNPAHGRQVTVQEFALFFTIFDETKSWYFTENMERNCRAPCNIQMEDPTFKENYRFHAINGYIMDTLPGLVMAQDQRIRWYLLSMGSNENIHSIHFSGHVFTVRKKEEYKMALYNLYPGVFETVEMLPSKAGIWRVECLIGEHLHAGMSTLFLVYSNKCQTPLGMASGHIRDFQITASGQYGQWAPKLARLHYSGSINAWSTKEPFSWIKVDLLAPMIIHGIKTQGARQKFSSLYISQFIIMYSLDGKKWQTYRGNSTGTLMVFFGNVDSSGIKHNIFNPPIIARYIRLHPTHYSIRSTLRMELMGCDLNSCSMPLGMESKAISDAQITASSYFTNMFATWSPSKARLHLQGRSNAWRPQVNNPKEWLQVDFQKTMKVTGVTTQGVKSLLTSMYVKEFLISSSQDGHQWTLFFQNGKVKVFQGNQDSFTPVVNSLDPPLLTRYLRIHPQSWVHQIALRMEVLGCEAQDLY

Some FVIII derivatives = assay: cell-based or functional assay

thrombin
thrombin cleavage of 35S-labeled immunoprecipitated protein, SDS-PAGE (FVIII derivatives): Analysis of the radiolabeled protein after thrombin digestion indicated a normal appearance of the 73 kD, and 50 and 40 kd fragments | activation by thrombin, measured in a classical coagulation test (APTT) [1]: are activated in the same manner as rh FVIII | activation by thrombin, measured in a classical coagulation test (APTT) [2]: are activated in the same manner as rh FVIII

thrombin (enzyme)
activation by thrombin, measured in a classical coagulation test (APTT) (Some FVIII derivatives): 7 fold
